Data on 40 sequences can be found in the nanobody polyreactivity screen of Harvey et al. (2022).

The data set can be described thus: yeast display, Sf9 membrane polyspecificity reagent, FACS + sequencing; frameworks hold sequencing errors. The method in brief:
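Sorting gates, low and high (top ~1%), were placed on anti-HA fluorescence to track expression and on streptavidin fluorescence to track reagent binding. A clone's polyreactivity label is taken from the gate it came out of. The reagent was 10% biotinylated, detergent-solubilized Sf9 membrane, applied for 1 hour at 4 °C to galactose-induced yeast display cells.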
Regarding “QVQLVESGGGLVQAGGSLRLICAASGSTFNVYAMGWYIPAPGKERELVASIRTSGTRTYYADSVKGRFTISRDNAKNNVYLQMNSLKPEDTAVYYCNARYYSNLRRHGGYWGQGTQVTVSS”, the “polyreactivity (PSR sort gate)” value was “high polyreactivity”.
Next, “QVQLVESGGGLVQAGGSLRLICAASGSTFQSYAMGWYRQAPGKERELVAAISARGGTTYYADSVKGRFTISRDNAKNTVYLQMNSLKPEDTAVYYCAAVDHSVYSGSPDTGESDYWGQGTQVTVSS”: “low polyreactivity”; “QVQLVESGGGLVQAGGSLRLICAASGSTFSSYFMGWYRQAPRKERKLVAAITRSGVYTYYADSVKGRFTISRDNAKNTVYLQMNSLKPEDTAVYYCARRAKGAYWNEYNYWGQGTQVTVSS”: “high polyreactivity”; “QVQLVESGGGLVQAGGSLRLICAASGSTFSYYTIGWYRTAPGKEMELVATISRRGASTYYADSVKGRFTISLDNAKNTVYLQMNSLKPEDTAVYYCAKSYYYGRSATRPEYDYWGQGTQVTVSS”: “high polyreactivity”.
Then “QVQLVESGGGLVQAGGSLRLICAASGSTFTGYAMGWYRQAPGKERELVAGITGSGGSTYYADSVKGRFTISRDNAKNTVYLQMNSLKPEDTAVYYCAAELYDYGDLYYSEYDYWGQGTQVTVSS”, with “low polyreactivity”.
For “QVQLVESGGGLVQAGGSLRLICAASGSTFYYNDMGWYRQAPGKERELVAAITGDGTTDYADSVKGRFTISRDNAKNTVYLQMNSLKPEDTAVYYCATTWSTYKWPDAYIIWYGYWGQGTQVTVSS”, the “polyreactivity (PSR sort gate)” value is recorded as “high polyreactivity”.
On to “QVQLVESGGGLVQAGGSLRLICAASGSTLAYNAMGWYRQAPGKERELVAGIRGSGGSTYYADSVKGRFTISRDNAKNTVYLQMNSLKPEDTAVYDCAADGLSNVRQMDYWGQGTQVTVSS”, for which the “polyreactivity (PSR sort gate)” value is recorded as “low polyreactivity”.
Then “QVQLVESGGGLVQAGGSLRLICAASGSTSWINAMGWYIQAPGKERELVAAISGRDGSTNYADSVKGRFTISRDNAKNTVYLLMNSLKPEDTAVYYCNANGRRFNRYGGDYWGLGTQVTVSS”, with “high polyreactivity”; and “QVQLVESGGGLVQAGGSLRLICAASGSTYRGYAMGWYRQAPGKERELVAAISYISGGTYYADSVKGRFTISRDNAKYTVYLQMNSLKPEDTAVYYCAVGSHSRSSNSYYYWGQGTQVTVSW”, with “low polyreactivity”; and “QVQLVESGGGLVQAGGSLRLICAASGTTFLSYAMGWYRQAQGKDRELVAAISWSGGRTYYAHSVKGRFTISRDNAKNTVYLQMNSLKPEDTAVYYCAAPHVPFTKHEYEYWGQGTQVTLSS”, with “low polyreactivity”.
Then “QVQLVESGGGLVQAGGSLRLICAASGVIFTGYTMGWYREAPGKESELVAAISYRGGSTYYADSVKGRFTISRDNAKITVYFQMNRLKPEDTAVYYCNAVWSNFRLGYDHWGQGTQVTVSS”, with “high polyreactivity”; and “QVQLVESGGGLVQAGGSLRLICAASGYIFYKNAMGWYRQAPGKERELVASITGTGGSTYYADSVKGRFTISRDNAKNTVYLQMNSLKPEDTAVYYCAADYTPWDPVSHWGQGTQVTVSS”, with “low polyreactivity”; and “QVQLVESGGGLVQAGGSLRLICAASGYTFYFYAMGWYIQAPGKERELVAAITGGGTTSYADSVKGRFTISRDKAKNTVYLQMNSLKPEDTAVYYCASSVRNNIERYRDYYWGQGTQVTVSS”, with “low polyreactivity”.
With “QVQLVESGGGLVQAGGSLRLICAATGRIFSPNAMGWYRQAPGKERELVAAITTSGGITYYADSVKGRFTISRDNAKNTVYLQMNSLKPEDTAVYYCNTGYNGRLRDDYWGQGTQVTVSS”, the “polyreactivity (PSR sort gate)” value is recorded as “high polyreactivity”.
On to “QVQLVESGGGLVQAGGSLRLICAATGSTLVSNAMGWYRKDPGKERELVAAISTSGGSTYYADSVKGRFTISRDNAKNTVYLQMNSLKPEDTAVYYCAAPYAGWGDGGDYWGQGTQVTVSS”, for which the “polyreactivity (PSR sort gate)” value was “low polyreactivity”.
Next, “QVQLVESGGGLVQAGGSLRLICADSGSIFVYYLMVWYRQAPGKEREFVAAISYGGGSTYYADSVKGRFTISRDNAKNTVYLQMNSLKPEDTAVYYCNTDIYSDYVCEEYEYWGQGTQVTLSS”: “high polyreactivity”.
Then “QVQLVESGGGLVQAGGSLRLICAGSGRIFYRYPMGWYRQAPGKERELVAAITVRGGSTYYADSVKGRFTISRDNAKNTVYVQRHSLKPEDTALYYCATGLGVLYDYWYEVEFDYWGQGTQVSVSS”, with “low polyreactivity”; and “QVQLVESGGGLVQAGGSLRLICASSGRIFAGYAMGWYRQAPGKERELVAAIRDSGRTYYAVSVKGRFTISRDNAKNTVYLQMNSLKPEVTAVSYCAADAHSSYSPFRWYDYWGQGTQVTVSS”, with “low polyreactivity”; and “QVQLVESGGGLVQAGGSLRLICDASGRIFGDNAMGWYRQAPGKEREFVATINGSGGSTYYADSVKGRFTISRDNAKNTVYLQMNSLKPEVTAVYYCFVQQNYGYDYWGQGTQVTVSS”, with “low polyreactivity”.
Regarding “QVQLVESGGGLVQAGGSLRLICDASGRTFTDNAMGLYRQAPGKERELVAAISSSGDFYAESVKGRFTISRDNAQNTVYLQMNSLKPEDTAVYYCAARVWRYYYQSRFYYWGQGTQVTVSS”, the “polyreactivity (PSR sort gate)” value was “high polyreactivity”.
Next, “QVQLVESGGGLVQAGGSLRLICDASGRTFVRYAMGWYRQAPGKERELVAAITRSASTYYADSVKGRFTISRDNAKNTVYLQMNSLKPEDTAVYYCNAGRKYWFGRAGGYDYWGQGTQVTVSS”: “high polyreactivity”; “QVQLVESGGGLVQAGGSLRLICDASGSIFGDYVMGWYSPAPGKERELVAAITSATSTYYADSVKGRFTISRDNAKNTVYLQMNSLKPEDTAVYYCKADATYPLWPNIWYDYDYWGQGTQVTVSS”: “low polyreactivity”.
Next, “QVQLVESGGGLVQAGGSLRLICSASGSIIEHYAMGWYRQAPGKERELVAAISWCGASTYYADSVKGRFTISRDNAKNTVYLQWYSLKPEDTAVYYCAAVFYGGGKRYYYWGQGTQVTVSS”: “high polyreactivity”; “QVQLVESGGGLVQAGGSLRLICSASGTTFPVYVMGRYRHAPGKERELVAAISRSGTSTYYADSVKGRFTISRDNAKNTVYLQMNSLKPEDTAVYYCAAQLYGHGEDYWGQGTQVTVSS”: “high polyreactivity”.
Next, “QVQLVESGGGLVQAGGSLRLIFAASGFIFETYAMGWYRQAPGKERELVAAISRGASTYYADSVKGRFTISRDNAKNTVYLQMNSLKPEDTAVYDCAAKRLSWHRYGYWGQGTQVTVSS”: “low polyreactivity”; “QVQLVESGGGLVQAGGSLRLISAASGIIFWGNAMGWYRQPPGNERELVATITGRGGSTYYADSVKGRFTISRDYAKNTVYLQMNSLKPEDTAVYYCAASGGRPILFYDVWGGIVRHEYWGQGTQVTVSS”: “low polyreactivity”.
With “QVQLVESGGGLVQAGGSLRLISAASGINFTGYAMGWYRQAPGKERELVAAISYSAASTYYADSVKGRFTISRDTAKNTVYLQMNSLKPEDTAVYYCAATAPSRSYPFRYYYWGQGTQVTVSS”, the “polyreactivity (PSR sort gate)” value is recorded as “high polyreactivity”.
Consider “QVQLVESGGGLVQAGGSLRLISAASGRTFYSNAMGWYRQAPGKERELVAAITKSGGRTYYADSVKGRFTISRDNAKNTDYLQMNSLIPEDTAVYYCKALVAAYYGYDYWGQGTQVTVSS”, for which the “polyreactivity (PSR sort gate)” value is given as “high polyreactivity”.
Then “QVQLVESGGGLVQAGGSLRLISAASGSIFPAYDMGLYRQAPGKEREFLPAIERGGSTYYADSVKGRYTISRDNAKNTVYLPMNSLKPVDTAVFYCATDCPEYPNYISSAGFDYWGQGTQVNVSS”, with “low polyreactivity”.
On to “QVQLVESGGGLVQAGGSLRLISAASGSTFRHYALGWNRQAPGKERELVAAISSTGGSTYYADSVKGRFTISRDNAKNTVYLQMNSLKPEDTAVFYCAARRLYWGQGTQVTVSS”, for which the “polyreactivity (PSR sort gate)” value was “high polyreactivity”.
As for “QVQLVESGGGLVQAGGSLRLIWAASGFTFWLNAMGWYRQAPGKERELVAAINWSGGSTYYADSVKGRFTISRDNAKNTVYLLMNILKPEDTAVYYCNRRGQYTFWPIHEYWGQGTQVTVSS”, the “polyreactivity (PSR sort gate)” value is on record as “high polyreactivity”.
Then “QVQLVESGGGLVQAGGSLRLKCAASGSTFRPYAMGWYRQAPGKERELVARITGSGDSTYYADSVKGRFTISRDNAKITVYLQINSLKPEDNAVYYCAREFDYSLSGFDYWGQGTQVTVSS”, with “low polyreactivity”; and “QVQLVESGGGLVQAGGSLRLLCADSGFTFEYYAMGWYRQAPGKERELVAAITSGGSTNYADSVKGRFTISRDNAKNTVYVQMNSLKPEDTAVYYCAAGYWYRYAALRYDHWGQGTQVTVSS”, with “low polyreactivity”.
On to “QVQLVESGGGLVQAGGSLRLRCAACGSIFTQYVMGWYRKAPGKERELVAAITWSGGNTYYADSVKGRFTISRDNAKNTVYLQMNSLKPEDTAVYYCAAYKPYSKYNDWGQGTQVTVSS”, for which the “polyreactivity (PSR sort gate)” value is “high polyreactivity”.
Then “QVQLVESGGGLVQAGGSLRLRCAASGFTFRLYAMGGDRQAPGKERELVATITQRGGRTYYADSVKGRFTISRDNAKNTVYLQMNSLKPEDTAVYYCAATWSLTTGTKFDYWGQGTQVTVSS”, with “high polyreactivity”.
Then “QVQLVESGGGLVQAGGSLRLRCAASGFTFYLYAMGWYRQAPGKERELVAAITWSGGRTYYADSVKGRFTNSRDNAKNTVYLQMNSLKPEYTAVYYCAAVVRKQLSAPSDYWGQGTQVTVSS”, with “high polyreactivity”; and “QVQLVESGGGLVQAGGSLRLRCAASGGTFYYYAMGWYRQAPGKERELVAAISTSGTSTYYADSVKGRFTISRDNAKNTVYLQMNSLKPEDTAVYDCAARGLRVSSRGYYWGQGTQVTVSS”, with “high polyreactivity”; and “QVQLVESGGGLVQAGGSLRLRCAASGHIFGRYAMGWYRQAPGKERELVAAFTSGGTTYYADSVKGRFTISRDNAKNTVYLQMNSLKPEDTAVYYCAAKFQLKRYSSPFIWYDSWGQGTQVTVSS”, with “high polyreactivity”.
Then “QVQLVESGGGLVQAGGSLRLRCAASGIIFGTNAMGWYRQAPGKERELVAGITSSGDSTYYADSVKGRFTISRDNAKNTVYLQMNSLKAEDTAVYYCARDIRTREFDSWGQGTQVTVSS”, with “low polyreactivity”; and “QVQLVESGGGLVQAGGSLRLRCAASGISFRRNVMGWCRQAPGKERELVARISRAGSTKYADSVKGRFTISRDTAKNTVYLQMTSLKPEDTAVYYCNKVTRRNGQPYDYWGQGTQVTVSS”, with “high polyreactivity”.
